The results in this text go back to patent publication US20140120109A1 (Regeneron, published 2014).

One may read the Kd as the constant that tells how readily two partners part at equilibrium. By IC50 is commonly meant the concentration at which inhibition is half-maximal.

In experiment [1] the target is T1, cynomolgus monkey TL1A, soluble, E. coli-expressed, residues 72-251 of SEQ ID NO:248 (cynomolgus monkey (Macaca fascicularis), UniProt O95150 72-251 (human entry)).
T1 construct: with or without N-terminal Met; also called MfTL1A (E. Coli)
T1 chain: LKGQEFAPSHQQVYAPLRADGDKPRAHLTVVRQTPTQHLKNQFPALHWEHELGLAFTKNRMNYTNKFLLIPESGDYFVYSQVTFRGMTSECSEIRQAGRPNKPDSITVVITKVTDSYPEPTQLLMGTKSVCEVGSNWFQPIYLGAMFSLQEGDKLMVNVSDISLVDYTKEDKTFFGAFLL
Nature of the experiment: SPR 25C, mAb captured. Here is the method: (§1) Measurements were conducted on a T100 BIACORE™ instrument. […] Kinetic association (kₐ) and dissociation (kd) rate constants were determined by fitting the data to a 1:1 binding model using BIAevaluation 4.1 curve fitting software (BIAcore Life Sciences). Molar concentrations of TL1A/Fhm used in the data fitting assumed a monomeric state for TL1A in solution. Binding dissociation equilibrium constants (KD) and dissociative half-lives (t_{1/2}) were calculated from the kinetic rate constants as: KD (M)=kd/kₐ; and t_{1/2} (min)=[In2/(60*kd)].

Experiment [2] addresses T2, Fhm, hTL1A(Q167R), soluble, E. coli-expressed, residues 72-251 of SEQ ID NO:246 (human, UniProt O95150 72-251).
T2 construct: with or without N-terminal Met
T2 chain: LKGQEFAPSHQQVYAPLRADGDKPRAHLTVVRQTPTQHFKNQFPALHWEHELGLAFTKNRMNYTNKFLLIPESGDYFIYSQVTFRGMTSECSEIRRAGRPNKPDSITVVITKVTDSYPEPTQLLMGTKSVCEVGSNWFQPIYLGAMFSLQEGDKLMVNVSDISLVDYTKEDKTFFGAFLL
Briefly: SPR 25C, mAb captured. On the procedure: as §1

Experiment [3] addresses T3, human TL1A, soluble, CHO-expressed, residues 72-251 of SEQ ID NO:244 with N-terminal His6-tag (human, UniProt O95150 72-251).
T3 construct: also called hTL1A; hTL1A (CHO)
T3 sequence: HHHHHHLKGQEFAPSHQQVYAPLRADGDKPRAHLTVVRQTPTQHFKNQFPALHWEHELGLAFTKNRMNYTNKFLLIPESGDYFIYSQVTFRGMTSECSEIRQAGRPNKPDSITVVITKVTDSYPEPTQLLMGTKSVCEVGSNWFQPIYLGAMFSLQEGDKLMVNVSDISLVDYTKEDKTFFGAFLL
Briefly: ELISA, blocks hTL1A (150 pM) binding hDR3-Fc. Here is the method: (§2) The ability of antibodies to block human TL1A binding to its cognate receptors, the DR3 and DcR3 receptors, was measured using a competition sandwich ELISA. In addition, blocking of a human TL1A variant FHM (human TL1A Q167R) and the cynomolgus monkey (Macaca fascicularis) TL1A (MfTL1A) protein binding to the human DR3 or DcR3 receptors was measured in the same manner. Constant amounts of biotinylated human TL1A or FHM (both expressed with a 6-His tag in CHO cells) or biotinylated MfTL1A (expressed in CHO cells) were separately titrated with varying amounts of antibodies. The antibody-protein complexes were incubated in solution (1 hr, 25° C.) and then transferred to microtiter plates coated with human DR3 (hDR3) or human DcR3 (hDcR3) expressed as human IgG1 Fc fusion proteins. After one hour at 25° C. the wells were washed, and bound human or monkey TL1A was detected with streptavidin conjugated with horseradish peroxidase (HRP). Wells were developed with a TMB solution to produce a colorimetric reaction and quenched with aqueous sulfuric acid before reading absorbance at 450 nm on a Perkin-Elmer Victor X5 plate reader. A sigmoidal dose-response curve was fit to the data using the Prism™ data analysis package. […] Both fully human anti-hTL1A mAbs and comparator antibodies, i.e., control mAb1 (an anti-hTL1A antibody with heavy and light chain variable domains having the amino acid sequences corresponding to SEQ ID NOS:21 and 27, respectively, of US 2009/0280116) and control mAb3 (an anti-hTL1A antibody with heavy and light chain variable domains having the amino acid sequences corresponding to SEQ ID NOS:57 and 48, respectively, of US 2009/0280116), were included in the study. NB: No binding under the conditions tested; NT: Not tested. Concentrations of biotinylated soluble ligands: (1) 150 pM; (2) 500 pM; (3) 10 pM; and (4) 50 pM.
On the technique in general: In an ELISA, binding on a coated surface is turned into a signal by an enzyme label.

For experiment [4], the target named is T4, cynomolgus monkey TL1A, soluble, CHO-expressed, residues 72-251 of SEQ ID NO:248 with N-terminal His6-tag (cynomolgus monkey (Macaca fascicularis), UniProt O95150 72-251 (human entry)).
T4 construct: also called MfTL1A; MfTL1A (CHO)
T4 chain: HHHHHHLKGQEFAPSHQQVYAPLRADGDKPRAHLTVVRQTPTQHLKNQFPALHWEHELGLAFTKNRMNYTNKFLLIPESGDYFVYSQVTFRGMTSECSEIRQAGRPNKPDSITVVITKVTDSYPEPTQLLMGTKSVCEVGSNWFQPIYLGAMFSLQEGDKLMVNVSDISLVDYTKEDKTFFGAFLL
Briefly: ELISA, blocks MfTL1A (50 pM) binding hDcR3-Fc. On the procedure:
as §2

The target of experiment [5] is T5, mouse TL1A, soluble, E. coli-expressed, residues 76-252 of SEQ ID NO:250 (mouse, UniProt Q5UBV8 76-252).
T5 construct: with or without N-terminal Met; also called mTL1A (E. Coli)
T5 sequence: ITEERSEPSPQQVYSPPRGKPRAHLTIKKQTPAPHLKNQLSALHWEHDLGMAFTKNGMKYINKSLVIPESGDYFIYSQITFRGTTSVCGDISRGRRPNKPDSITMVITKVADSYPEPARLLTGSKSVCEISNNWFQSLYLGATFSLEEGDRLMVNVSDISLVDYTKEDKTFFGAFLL
Nature of the experiment: SPR 25C, steady state. Here is the method:
Measurements were conducted on a T100 BIACORE™ instrument. […] Kinetic association (kₐ) and dissociation (kd) rate constants were determined by fitting the data to a 1:1 binding model using BIAevaluation 4.1 curve fitting software (BIAcore Life Sciences). Molar concentrations of TL1A/Fhm used in the data fitting assumed a monomeric state for TL1A in solution. […]

Experiment [6] has as its target T6, Fhm, hTL1A(Q167R), soluble, CHO-expressed, residues 72-251 of SEQ ID NO:246 (human, UniProt O95150 72-251).
T6 construct: also called Fhm (CHO); FHM (CHO)
T6 chain: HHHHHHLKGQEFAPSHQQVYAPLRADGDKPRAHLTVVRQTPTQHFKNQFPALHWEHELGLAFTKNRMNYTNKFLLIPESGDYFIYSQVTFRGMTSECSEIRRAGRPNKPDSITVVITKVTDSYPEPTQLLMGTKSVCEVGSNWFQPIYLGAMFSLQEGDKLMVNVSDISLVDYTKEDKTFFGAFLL
Nature of the experiment: ELISA, blocks FHM (150 pM) binding hDR3-Fc; blocking of FHM binding to hDR3. Here is the method: as §2

The target of experiment [7] is T3, human TL1A, soluble, CHO-expressed, …. Briefly: ELISA, blocks hTL1A (10 pM) binding hDcR3-Fc. Here is the method: as §2
Experiment [8] concerns the target T4, cynomolgus monkey TL1A, soluble, …. Nature of the experiment: ELISA, blocks MfTL1A (500 pM) binding hDR3-Fc. Here is the method:
as §2

For experiment [9], the target named is T1, cynomolgus monkey TL1A, soluble, E. …. Briefly: SPR 37C, mAb captured. Here is the method: as §1
Experiment [10] addresses T7, mouse DR3, full-length, expressed on HEK293 NFkB-luciferase reporter cells (mouse).
T7 chain: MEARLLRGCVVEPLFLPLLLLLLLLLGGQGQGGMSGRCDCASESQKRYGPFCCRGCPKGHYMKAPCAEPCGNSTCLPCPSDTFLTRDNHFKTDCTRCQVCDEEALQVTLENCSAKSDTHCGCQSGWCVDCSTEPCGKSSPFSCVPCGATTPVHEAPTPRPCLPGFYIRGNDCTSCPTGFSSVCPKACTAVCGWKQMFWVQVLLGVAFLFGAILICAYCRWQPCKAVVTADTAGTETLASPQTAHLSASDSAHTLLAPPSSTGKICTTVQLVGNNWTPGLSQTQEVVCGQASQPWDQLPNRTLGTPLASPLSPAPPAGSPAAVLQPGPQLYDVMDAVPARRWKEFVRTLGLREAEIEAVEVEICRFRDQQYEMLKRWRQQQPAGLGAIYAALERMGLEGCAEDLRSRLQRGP
Nature of the experiment: cell-based or functional assay.

Experiment [11] has as its target T8, human DR3, full-length, expressed on HEK293 NFkB-luciferase reporter cells (human, UniProt Q93038 25-417).
T8 sequence: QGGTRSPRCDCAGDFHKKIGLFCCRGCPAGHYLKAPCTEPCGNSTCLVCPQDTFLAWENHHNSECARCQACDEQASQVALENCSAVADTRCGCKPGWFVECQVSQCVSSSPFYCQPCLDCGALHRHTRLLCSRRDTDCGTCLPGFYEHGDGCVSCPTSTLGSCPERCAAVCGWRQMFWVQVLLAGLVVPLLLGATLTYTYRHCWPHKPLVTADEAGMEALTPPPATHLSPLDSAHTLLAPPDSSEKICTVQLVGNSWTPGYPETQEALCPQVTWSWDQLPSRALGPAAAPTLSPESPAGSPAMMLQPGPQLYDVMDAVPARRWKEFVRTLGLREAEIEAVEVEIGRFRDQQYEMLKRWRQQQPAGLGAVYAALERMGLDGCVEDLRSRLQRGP
Briefly: cell-based or functional assay.

B1: H2M1804N (antibody, V domains shown)
VH: QVQLHQWGAGLLKPSETLSLTCAVSGVSFSDYHWAWIRQSPGKGLEWIGDINHRGRTNYNPSLKSRVTISLDTSGNPFSLKLTSVTAADTAVYYCARDFPNWVFDSWGQGILVTVSS
VL: EIVLSQSPGTLSLSPGERATLSCRASQSVSSSFLAWYQQYPGQAPRLLIYGASRRATGIPDRFRGSGSGTDFTLTISRLEPEDFAVYYCQQYGSSPLTFGGGTKVENK
notes: chimeric hybridoma antibody: human variable regions, mouse constant regions (mouse Fc)
Consider B1, for which the equilibrium dissociation constant (Kd) in [1] was 0.176 nM; in experiment [2], 0.192 nM; in [9], 0.218 nM. Further, the t1/2 in [1] is 2.87 h; in experiment [2], 1.8 h; in [9] it was 1.97 h. Also, the IC50 came to 0.046 nM in experiment [3]; 0.009 nM in experiment [4]; 0.102 nM in [6]; 0.12 nM in experiment [7]; 0.081 nM in experiment [8]. Also, in experiment [5], the binding result was “no binding (tested: up to 100 nM)”.

B2: full length mouse TL1A expressed on HEK293 cells (ligand)
chain: MAEELGLGFGEGVPVEVLPEGCRHRPEARAGLAARSKACLALTCCLLSFPILAGLSTLLMAGQLRVPGKDCMLRAITEERSEPSPQQVYSPPRGKPRAHLTIKKQTPAPHLKNQLSALHWEHDLGMAFTKNGMKYINKSLVIPESGDYFIYSQITFRGTTSVCGDISRGRRPNKPDSITMVITKVADSYPEPARLLTGSKSVCEISNNWFQSLYLGATFSLEEGDRLMVNVSDISLVDYTKEDKTFFGAFLL
For the molecule B2, the “EC50 (cells), NFkB-luciferase reporter” value in experiment [10] is 12400 cells.

B3: H2M1818N (antibody, V domains shown)
VH: RLQLVESGGGLVKPGGSLKLSCAASGFTISDYYMSWIRQAPGKGLEWVSYIGGSGSTIYYADSVKGRFTISRDNAKNSLYLQMNSLRAEDTAVYYCAREDADSYYYYGMDVWGQGTTVTVSS
VL: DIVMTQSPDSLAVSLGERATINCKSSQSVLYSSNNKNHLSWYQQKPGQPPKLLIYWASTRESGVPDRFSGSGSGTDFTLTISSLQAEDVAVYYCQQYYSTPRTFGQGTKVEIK
notes: as for B1
As to B3, the dissociation constant Kd in experiment [1] was 1.84 nM; in experiment [2], 1.08 nM; in experiment [5], 171 nM; in experiment [9], 4.1 nM. In addition, the t1/2 in [1] turned out to be 0.167 h; in experiment [2] it was 0.283 h; in experiment [9], 0.05 h. For the same molecule, the IC50 stood at 0.154 nM in experiment [3]; 0.055 nM in experiment [4]; 0.317 nM in [6]; 0.396 nM in experiment [7]; 0.239 nM in [8].

B4: full-length Fhm, human TL1A(Q167R), expressed on HEK293 cells (ligand)
chain: MAEDLGLSFGETASVEMLPEHGSCRPKARSSSARWALTCCLVLLPFLAGLTTYLLVSQLRAQGEACVQFQALKGQEFAPSHQQVYAPLRADGDKPRAHLTVVRQTPTQHFKNQFPALHWEHELGLAFTKNRMNYTNKFLLIPESGDYFIYSQVTFRGMTSECSEIRRAGRPNKPDSITVVITKVTDSYPEPTQLLMGTKSVCEVGSNWFQPIYLGAMFSLQEGDKLMVNVSDISLVDYTKEDKTFFGAFLL
Regarding B4, the “EC50 (cells), NFkB-luciferase reporter” value in [11] was determined as 47900 cells.

B5: full-length cynomolgus monkey TL1A expressed on HEK293 cells (ligand)
chain: MAEDLGLSFGETASVEMLPEHGSCRPKARSSSACWALTCCLVLLPFLAGLTTYLLVSQLRAQGEACVQLQDLKGQEFAPSHQQVYAPLRADGDKPRAHLTVVRQTPTQHLKNQFPALHWEHELGLAFTKNRMNYTNKFLLIPESGDYFVYSQVTFRGMTSECSEIRQAGRPNKPDSITVVITKVTDSYPEPTQLLMGTKSVCEVGSNWFQPIYLGAMFSLQEGDKLMVNVSDISLVDYTKEDKTFFGAFLL
B5: in experiment [11], the “EC50 (cells), NFkB-luciferase reporter” value was 8460 cells.
